Conditions: Bacillus amyloliquefaciens, pH 6.3, Thermal, CD, Mes 50 mM, whole UniProt chain shown

B1: Ribonuclease wild type, P00648 (protein)
chain: MMKMEGIALKKRLSWISVCLLVLVSAAGMLFSTAAKTETSSHKAHTEAQVINTFDGVADYLQTYHKLPDNYITKSEAQALGWVASKGNLADVAPGKSIGGDIFSNREGKLPGKSGRTWREADINYTSGFRNSDRILYSSDWLIYKTTDHYQTFTKIR
With B1 the unfolding free energy (25 °C) was 9.5 kcal/mol, the Tm was 52.2 °C and the “unfolding enthalpy (van 't Hoff)” value was 137 kcal/mol.

Source: FireProtDB (doi:10.1021/bi0362267)
